From patent US20230212304A1 (BIOSION, published 2023)

T1: recombinant human CTLA4-his protein (Acro biosystems, Cat#CT4-H5229) (human, UniProt P16410 37-162)
T1 construct: bought recombinant protein; not shown: his tag
T1 sequence (looked up): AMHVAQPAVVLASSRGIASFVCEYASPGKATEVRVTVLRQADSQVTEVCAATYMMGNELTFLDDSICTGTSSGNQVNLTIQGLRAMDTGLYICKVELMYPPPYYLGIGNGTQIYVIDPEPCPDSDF

T2: recombinant human CTLA4 protein with human IgG1 Fc tag at the C-terminus (Acro biosystems, Cat#CT4-H5255) (human, UniProt P16410 37-162)
T2 construct: bought protein; also called human CTLA4-Fc; CTLA4-Fc; not shown: human IgG1 Fc tag at the C-terminus
T2 sequence (looked up): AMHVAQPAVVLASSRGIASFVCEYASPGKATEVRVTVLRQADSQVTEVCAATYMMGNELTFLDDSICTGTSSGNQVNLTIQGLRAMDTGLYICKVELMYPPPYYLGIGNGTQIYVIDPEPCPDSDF

T3: cynomolgus monkey CTLA4-his protein (Acro biosystems, Cat#CT4-C5227) (cynomolgus monkey, UniProt G7PL88 36-161)
T3 construct: bought recombinant protein; also called Cynomolgus CTLA4-his; not shown: his tag
T3 sequence: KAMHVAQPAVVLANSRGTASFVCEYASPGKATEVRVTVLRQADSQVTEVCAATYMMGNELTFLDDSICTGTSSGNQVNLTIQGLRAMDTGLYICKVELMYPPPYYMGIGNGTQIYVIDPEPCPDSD


Tests used:
[1] = molecular target: T1, recombinant human CTLA4-his protein …; assay: BLI, Octet; antibody from cell supernatant on AHC sensor, CTLA4-his as analyte
Procedure: Briefly, AHC biosensors (anti-human IgG Fc capture, from ForteBio) were presoaked with 10 mM glycine (pH 1.5) for 3 seconds, and then dipped in a well with running buffer (0.5% w/v BSA in PBST) for 3 seconds, the soaking and dipping steps were repeated for three times. […] A new baseline was run for 180 seconds in another well with running buffer. […] Finally, sensors were presoaked with 10 mM glycine (pH 1.5) for 3 seconds, and then were dipped in a well with running buffer for 3 seconds, the soaking and dipping steps repeated for three times. The association and dissociation curves were fit to a 1:1 Langmuir binding model using ForteBio Data Analysis 8.1.

[2] = molecular target: T2, recombinant human CTLA4 protein with …; assay: capture ELISA: antibody captured on anti-mouse IgG F(ab')2 coated plate, biotin human CTLA4-Fc 26 ng/ml, streptavidin-HRP, OD(450-630)
Procedure: (§1) Plates were washed once with wash buffer (PBS+0.05% v/v Tween-20, PBST) and then blocked with 200 µl/well blocking buffer (PBST with 5% w/v non-fatty milk) for 2 hours at 37° C. […] After a final wash, plates were incubated with 100 µl/well substrate TMB (Innoreagents, Cat#TMB-S-002). The reaction was stopped in 15 minutes at room temperature with 50 µl/well 1M H₂SO₄, and the absorbance of the each well was read on a microplate reader using dual wavelength mode with 450 nm for TMB and 630 nm as the reference wavelength, then the OD (450-630) values were plotted against antibody concentration. Data was analyzed using Graphpad Prism software and EC₅₀ values were reported.

[3] = molecular target: T2, recombinant human CTLA4 protein with …; assay: cell-based or functional assay
[4] = molecular target: T1, recombinant human CTLA4-his protein …; assay: SPR, Biacore T200; antibody captured, CTLA4-his as analyte
Procedure: (§2) Un-reacted moieties on the biosensor surface were blocked with ethanolamine. […] The antigen-antibody association kinetics was followed for 2 minutes and the dissociation kinetics was followed for 10 minutes. The association and dissociation curves were fit to a 1:1 Langmuir binding model using BIAcore evaluation software.

[5] = molecular target: T3, cynomolgus monkey CTLA4-his protein …; assay: as above
Procedure: as §2

[6] = molecular target: T2, recombinant human CTLA4 protein with …; assay: capture ELISA: antibody captured on coated plate (anti-human IgG Fc for the chimeric antibodies), biotin human CTLA4-Fc, streptavidin-HRP, OD(450-630)
Procedure: as §1
For the capture ELISA, AffiniPure Goat Anti-Human IgG, Fcy fragment specific (Jackson Immuno Research, Cat#109-005-008) was used instead of AffiniPure Goat Anti-Mouse IgG, F(ab′)₂ fragment specific, 100 µl/well.

[7] = molecular target: T2, recombinant human CTLA4 protein with …; assay: competitive ELISA: antibody pre-mixed with biotin human CTLA4-Fc (65 ng/ml), added to plate coated with the benchmark; competitor: coated Yervoy
Procedure: Plates were washed once with wash buffer, blocked with 200 µl PBST with 5% w/v non-fatty milk, incubated for 2 hours at 37° C., and washed 4 times.
After incubation at 37° C. for 40 minutes, plates were washed 4 times again using wash buffer. Then the plates were added and incubated with 100 µl/well streptavidin conjugated HRP (1:10000 dilution in PBST, Jackson Immuno Research, Cat#016-030-084, 100 µl/well) for 40 minutes at 37° C. Plates were finally washed using wash buffer. Finally, TMB was added and the reaction was stopped using 1M H₂SO₄, and the absorbance of the each well was read on a microplate reader using dual wavelength mode with 450 nm for TMB and 630 nm as the reference wavelength, then the OD (450-630) values were plotted against antibody concentration. Data was analyzed using Graphpad Prism software and IC₅₀ values were reported.

[8] = molecular target: T2, recombinant human CTLA4 protein with …; assay: cell based blocking FACS: antibody pre-mixed with human CTLA4-Fc (1 ug/mL), added to Daudi cells; blocked ligands: cell surface CD80/CD86
Procedure: Daudi cells were harvested from cell culture flasks at the log phase, washed twice and re-suspended in PBS containing 2% v/v Fetal Bovine Serum (FACS buffer). […] Cells were washed twice and re-suspended in FACS buffer. Fluorescence was measured using a Becton Dickinson FACS Canto II-HTS equipment. Data was analyzed using Graphpad Prism software and IC₅₀ values were reported.

| Kd [1] [nM] | koff [1] [s⁻¹] | kon [1] [M⁻¹ s⁻¹] | EC50 [2] [nM] | EC50 of IL-2 release (GS-J1 T cells + GS-C1/CD80 cells + human CTLA4-Fc, IL-2 HTRF) [3] [nM] | Kd [4] [nM] | koff [4] [s⁻¹] | kon [4] [M⁻¹ s⁻¹] | Kd [5] [nM] | koff [5] [s⁻¹] | kon [5] [M⁻¹ s⁻¹] | EC50 [6] [nM] | IC50 [7] [nM] | IC50 [8] [nM] | Binder |
| --- | --- | --- | --- | --- | --- | --- | --- | --- | --- | --- | --- | --- | --- | --- |
| 33 | 0.00163 | 49300 |  |  |  |  |  |  |  |  |  |  |  | huD1D5-V10 (antibody, human IgG4 S228P, kappa, V domains shown, humanized IgG4/kappa; tested as 293F cell supernatant on Octet; also called hu CTLA4 D1D5-V10) VH: EVQLVESGGGLVKPGGSLRLSCAASGFTFSDYGMAWVRQAPGKGLEWVAFISNLAYSVYYADTETGRFTISRDNAKNSLYLQMNSLRAEDTAVYYCARSGLPYAMDYWGQGTTVTVSS VL: DIQMTQSPSSLSASVGDRVTITCRASQDISNYLNWYQQKPGKVPKLLIYYISRLHSGVPSRFSGSGSGTDFTLTISSLQPEDVATYYCQQGRMLPWTFGGGTKVEIKR |
| 6.94 | 0.000538 | 77500 |  |  |  |  |  |  |  |  |  |  |  | huD1D5-V11 (antibody, human IgG4 S228P, kappa, V domains shown, humanized IgG4/kappa; tested as 293F cell supernatant on Octet; also called hu CTLA4 D1D5-V11) VH: EVQLVESGGGLVKPGGSLRLSCAASGFTFSDYGMAWVRQAPGKGLEWVAFISNLAYSVYYADTETGRFTISRDDAKNSLYLQMNSLRAEDTAVYYCARSGLPYAMDYWGQGTTVTVSS VL: DIQMTQSPSSLSASVGDRVTITCRASQDISNYLNWYQQKPGKVPKLLIYYISRLHSGVPSRFSGSGSGTDFTLTISSLQPEDVATYYCQQGRMLPWTFGGGTKVEIKR |
| 37.4 | 0.00133 | 35500 |  |  |  |  |  |  |  |  |  |  |  | huD1D5-V12 (antibody, human IgG4 S228P, kappa, V domains shown, humanized IgG4/kappa; tested as 293F cell supernatant on Octet; also called hu CTLA4 D1D5-V12) VH: EVQLVESGGGLVKPGGSLRLSCAASGFTFSDYGMAWVRQAPGKGLEWVSFISNLAYSVYYADTETGRFTISRDNAKNSLYLQMNSLRAEDTAVYYCARSGLPYAMDYWGQGTTVTVSS VL: DIQMTQSPSSLSASVGDRVTITCRASQDISNYLNWYQQKPGKVPKLLIYYISRLHSGVPSRFSGSGSGTDFTLTISSLQPEDVATYYCQQGRMLPWTFGGGTKVEIKR |
|  |  |  | 1.11 | 43.6 | 2.24 | 0.000495 | 221000 | 1.18 | 0.000532 | 451000 | 5.78 |  |  | mouse anti-CTLA4 monoclonal antibody D1B8 (antibody, V domains shown, mouse mAb purified from hybridoma supernatant) VH: QIQLQQSGPELVKPGASVKISCKASGYTFTDYYINWVKQRPGQGLEWIGWIYPGNNNTRYNEKFKGKATLTIDTSSSTAFMHLSSLTSEDSAVYFCARYYFDYWGQGTTLTVSS VL: DIQMTQSPSSLSASLGERISLTCRASQEITGYLSWLQQKPDGTIKRLIYAASTLDSGVPQRFSGSRSGSDYSLTISSLESEDFADYYCLQYASYPRTFGGGTKLEIK |
|  |  |  |  |  |  |  |  |  |  |  | 2.84 |  |  | chimeric D1B8 anti-CTLA4 antibody (antibody, human IgG4 S228P, kappa, V domains shown, mouse variable domains on human IgG4/kappa) VH: QIQLQQSGPELVKPGASVKISCKASGYTFTDYYINWVKQRPGQGLEWIGWIYPGNNNTRYNEKFKGKATLTIDTSSSTAFMHLSSLTSEDSAVYFCARYYFDYWGQGTTLTVSS VL: DIQMTQSPSSLSASLGERISLTCRASQEITGYLSWLQQKPDGTIKRLIYAASTLDSGVPQRFSGSRSGSDYSLTISSLESEDFADYYCLQYASYPRTFGGGTKLEIKR |
|  |  |  | 0.206 | 37.8 | 4.15 | 0.000931 | 224000 | 2.07 | 0.000601 | 290000 |  | 1.86 | 9.27 | mouse anti-CTLA4 monoclonal antibody D1H3 (antibody, V domains shown, mouse mAb purified from hybridoma supernatant) VH: QVQLQQPGAELVNPGASVKLSCKASGYTFTSYWLHWVKQRPGRGLEWIGRIDPNRGTIYYNEKFNNKATVTVDKPSNTAYMQLSRLTLEDSAVYYCARGGSNFYAMDYWGQGTSVTVSS VL: DIQMTQSPASLSASVGETVTITCRTSENIYSYLAWYQQKQGESPQLLVYNAKTLAEGVPSRFSGSGSGTQFSLKINSLQPEDFGSYYCQNHDGIPFTFGSGTKLEIK |
|  |  |  | 0.134 | 45.9 | 2.41 | 0.000602 | 249000 | 1.66 | 0.00137 | 829000 |  | 0.445 | 6.81 | mouse anti-CTLA4 monoclonal antibody D1A7 (antibody, V domains shown, mouse mAb purified from hybridoma supernatant) VH: QVTLKESGPGMLQPSQTLSLTCSFSGFSLSSSKLGVGWIRQPAGKGLEWLAHIWWNDDNYYVPSLKSRLTISKDTSNNQVFLKITNVDAADTATYYCVQVPYYTTQPWFAYWGQGTLVTVSA VL: DIQMTQSPASLSASVGETVTITCRASGNIHNYLAWYLQNQGRSPQLLVYNTETLADGVSSRFSGSGSGTQYFLKISSLQPEDFGTYYCQHLWSTPWTFGGGTKLEIK |
|  |  |  | 0.245 | 38.3 | 2.24 | 0.00153 | 671000 | 2.24 | 0.00076 | 340000 |  | 3.85 | 7.12 | mouse anti-CTLA4 monoclonal antibody D2A4 (antibody, V domains shown, mouse mAb purified from hybridoma supernatant) VH: QVQLQQPGAELVKPGSSVNLSCKASGYTFTSYWVHWVKQGPGRGLEWIGRIDPNRGGTYYNENFKTKAALTVDSPSSTAYMHLSSLTSEDSAVYYCARGGLNYYALDYWGQGTSVTVSS VL: DIQMTQSPASLFASLGETVTITCRASENIYSYLAWYQQKQGKSPQLLVYNANTLTEGVPSSFSGSGSGTQFSLKINTLQPEDFGTYYCQHHYGIPFTFGSGTKLEIK |
|  |  |  | 0.0979 | 41.5 | 9.06 | 0.000695 | 76700 | 1.96 | 0.000662 | 338000 |  | 0.445 |  | mouse anti-CTLA4 monoclonal antibody D1G6 (antibody, V domains shown, mouse mAb purified from hybridoma supernatant) VH: EVQLQQSGPELVKPGASVKLSCKASGNTFTTYVLNWVKQKPGQGLEWIGYFNPYNDAIKYNEKFKGKATLTSDKSSSTAYMELSSLTSEDSAVYYCARFEGGGYAMDYWGQGTSVTVSS VL: DIVLTQSPASLAVSLGQRATISCRASQSVGTSSYSYIHWYQQKPGQPPKLLIKYASDLESGVPARFSGSGSGTDFTLNIHPVEEEDTATYYCQHSWEIPYTFGGGTKLEIK |
